Results from patent US20190085033A1.

Columns and labels:
[1] = biological target: CD4 on human CD4+ T cells (human) (UniProt P01730); experiment: flow cytometry, trimer labelled with two fluorescent probes on human CD4+ T cells, 30 mins
[2] = biological target: BG505-gp120 9MUTB (7MUT+N135R/Q328M) (HIV-1, strain BG505); experiment: SPR, monomeric gp120
BG505 SOSIP T332N gp140 = experiment: SPR; conditions: Fab

BG505 SOSIP T332N gp140 (other; other documents disagree on this pair)
percentage of cells bound (double-positive population) [1]: 99.1%

PGT121 (antibody)
Kd [2]: 1.5 nM

PGT121 Fab
Kd (BG505 SOSIP T332N gp140): 26 nM
